Measurements from patent US20180057604A1 (Genentech, published 2018).
Read-outs that look alike come from different tables or passages of the source.

Legend:
[1] = biological target: T1, human TfR extracellular domain with N-terminal His tag (human, UniProt P02786 89-760); assay: SPR, IgG;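 also: His-tagged TfR captured via immobilized anti-His antibody on a CM5 chip, antibody injected in 3-fold dilution series by single cycle kinetics, 1:1 Langmuir or steady-state fit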
T1 construct: Biotinylated in some assays; also called huTfR; HuTfR

[2] = biological target: T2, murine BACE1 ECD; assay: Octet, pH 5.0
T2 construct: analyte of the Octet assay (200 nM) and enzyme of the first short substrate assay

[3] = biological target: T3, human BACE1 ECD; assay: Octet, pH 5.0
T3 construct: analyte of the Octet assay (200 nM) and enzyme of the first short substrate assay; also called human BACE1 extracellular domain

[4] = biological target: BACE1 (HTRF long substrate and FRET short substrate assays of Example 9D); assay: cell-based or functional assay
[5] = biological target: T2, murine BACE1 ECD; assay: Octet, pH 7.5;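 also: antibodies captured on anti-human capture biosensor tips, dissociation followed in PBS with BSA buffer, kinetics fitted with a one-to-one binding model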
[6] = biological target: T3, human BACE1 ECD; assay: Octet, pH 7.5;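 also: antibodies captured on anti-human capture biosensor tips, dissociation followed in PBS with BSA buffer, kinetics fitted with a one-to-one binding model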
[7] = biological target: T2, murine BACE1 ECD; assay: cell-based or functional assay
[8] = biological target: T3, human BACE1 ECD; assay: cell-based or functional assay
[9] = biological target: T4, human BACE1 (R&D Systems) (human, UniProt P56817); assay: SPR (Biacore)
T4 construct: recombinant, commercial (R&D Systems)

[10] = biological target: T5, BACE1 in primary mouse cortical neurons (mouse, UniProt P56818 46-501); assay: cell-based or functional assay
[11] = biological target: T2, murine BACE1 ECD; assay: Octet, pH 7.5; remark: listed apart in the source;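 also: antibodies captured on anti-human capture biosensor tips, dissociation followed in PBS with BSA buffer, kinetics fitted with a one-to-one binding model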
[12] = biological target: T3, human BACE1 ECD; assay: Octet, pH 7.5; remark: listed apart in the source;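 also: antibodies captured on anti-human capture biosensor tips, dissociation followed in PBS with BSA buffer, kinetics fitted with a one-to-one binding model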
[13] = biological target: T5, BACE1 in primary mouse cortical neurons; assay: cell-based or functional assay; remark: listed apart in the source
[14] = biological target: T2, murine BACE1 ECD; assay: Octet, pH 5.0; remark: listed apart in the source
[15] = biological target: T3, human BACE1 ECD; assay: Octet, pH 5.0; remark: listed apart in the source

T2 sequence (single chain, as listed by the source limits assumed): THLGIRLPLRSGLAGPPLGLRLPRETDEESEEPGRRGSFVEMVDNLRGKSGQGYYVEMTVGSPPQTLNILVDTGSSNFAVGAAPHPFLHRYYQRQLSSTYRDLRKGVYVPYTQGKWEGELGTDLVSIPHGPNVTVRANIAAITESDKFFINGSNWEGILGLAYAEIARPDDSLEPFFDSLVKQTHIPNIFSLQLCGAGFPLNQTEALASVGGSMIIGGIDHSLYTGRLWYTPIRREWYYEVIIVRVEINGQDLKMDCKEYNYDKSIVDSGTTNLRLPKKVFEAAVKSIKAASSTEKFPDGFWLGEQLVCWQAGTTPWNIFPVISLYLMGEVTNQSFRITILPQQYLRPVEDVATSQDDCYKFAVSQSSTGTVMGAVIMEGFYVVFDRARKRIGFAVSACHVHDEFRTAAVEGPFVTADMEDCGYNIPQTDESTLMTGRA
T4 sequence (P56817 22-457 limits assumed): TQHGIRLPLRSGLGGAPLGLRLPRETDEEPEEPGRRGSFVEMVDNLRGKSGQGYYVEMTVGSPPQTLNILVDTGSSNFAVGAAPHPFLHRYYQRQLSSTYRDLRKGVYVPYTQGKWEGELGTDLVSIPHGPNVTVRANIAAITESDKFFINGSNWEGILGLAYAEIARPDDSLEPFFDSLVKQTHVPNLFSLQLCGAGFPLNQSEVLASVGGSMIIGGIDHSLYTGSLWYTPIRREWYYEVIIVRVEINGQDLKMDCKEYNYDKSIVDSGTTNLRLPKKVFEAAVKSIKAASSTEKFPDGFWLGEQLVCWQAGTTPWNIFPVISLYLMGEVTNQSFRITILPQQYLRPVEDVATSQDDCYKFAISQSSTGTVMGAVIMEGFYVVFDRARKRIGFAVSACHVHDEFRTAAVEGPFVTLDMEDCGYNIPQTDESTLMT
T3 sequence (single chain, as listed by the source limits assumed): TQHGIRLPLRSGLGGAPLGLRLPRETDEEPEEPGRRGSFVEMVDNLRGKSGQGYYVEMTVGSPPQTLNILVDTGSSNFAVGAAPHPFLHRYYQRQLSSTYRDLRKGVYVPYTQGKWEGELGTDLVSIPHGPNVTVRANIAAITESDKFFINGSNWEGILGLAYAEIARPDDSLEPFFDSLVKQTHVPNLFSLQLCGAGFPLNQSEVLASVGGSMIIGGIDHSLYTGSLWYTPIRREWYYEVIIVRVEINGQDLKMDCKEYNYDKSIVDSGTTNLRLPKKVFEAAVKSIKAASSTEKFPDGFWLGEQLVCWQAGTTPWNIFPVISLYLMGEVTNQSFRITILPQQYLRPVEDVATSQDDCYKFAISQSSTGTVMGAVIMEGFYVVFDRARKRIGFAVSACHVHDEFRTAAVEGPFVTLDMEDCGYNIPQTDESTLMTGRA
T5 sequence (P56818 46-501): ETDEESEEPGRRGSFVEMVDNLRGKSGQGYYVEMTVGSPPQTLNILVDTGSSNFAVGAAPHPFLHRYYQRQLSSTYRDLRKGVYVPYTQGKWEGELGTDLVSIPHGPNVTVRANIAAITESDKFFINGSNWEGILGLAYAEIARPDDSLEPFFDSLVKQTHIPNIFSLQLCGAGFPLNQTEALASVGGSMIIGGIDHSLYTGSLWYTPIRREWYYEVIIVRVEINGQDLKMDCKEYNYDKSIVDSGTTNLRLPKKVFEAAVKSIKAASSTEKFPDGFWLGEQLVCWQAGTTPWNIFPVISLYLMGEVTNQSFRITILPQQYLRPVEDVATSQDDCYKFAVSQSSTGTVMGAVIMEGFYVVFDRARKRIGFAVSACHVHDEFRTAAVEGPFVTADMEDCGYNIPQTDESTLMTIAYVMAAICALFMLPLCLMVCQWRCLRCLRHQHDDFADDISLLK
T1 sequence (P02786 89-760 G142S): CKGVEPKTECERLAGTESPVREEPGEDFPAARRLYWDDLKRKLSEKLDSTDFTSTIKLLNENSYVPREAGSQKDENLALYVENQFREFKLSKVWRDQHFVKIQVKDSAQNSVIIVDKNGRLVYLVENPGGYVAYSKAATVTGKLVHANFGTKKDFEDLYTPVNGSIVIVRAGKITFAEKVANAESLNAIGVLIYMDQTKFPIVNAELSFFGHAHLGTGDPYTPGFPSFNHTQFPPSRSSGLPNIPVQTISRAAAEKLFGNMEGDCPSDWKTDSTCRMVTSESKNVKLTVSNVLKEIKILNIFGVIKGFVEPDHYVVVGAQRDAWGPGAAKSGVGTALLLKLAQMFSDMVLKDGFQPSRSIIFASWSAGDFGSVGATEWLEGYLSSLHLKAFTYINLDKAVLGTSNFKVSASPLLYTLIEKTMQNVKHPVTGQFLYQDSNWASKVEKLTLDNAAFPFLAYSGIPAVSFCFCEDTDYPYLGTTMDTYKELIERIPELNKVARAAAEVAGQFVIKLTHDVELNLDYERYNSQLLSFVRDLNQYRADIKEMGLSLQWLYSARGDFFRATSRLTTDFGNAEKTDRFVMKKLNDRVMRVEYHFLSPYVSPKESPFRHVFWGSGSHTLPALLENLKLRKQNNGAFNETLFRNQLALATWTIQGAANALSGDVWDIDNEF

B1: hu7A4.v5 (antibody, V domains shown)
VH: EVQLVQSGAEVKKPGASVKVSCKASGYTFTDYAMHWVRQAPGQGLEWMGGISTYFGRTNYNQKFKGRVTMTRDTSISTAYMELSRLRSDDTAVYYCARGLSGNYVMDYWGQGTTVTVSS
VL: DIVMTQSPDSLAVSLGERATINCRASESVDSYGNSFMHWYQQKPGQPPKLLIYRASNLESGIPDRFSGSGSGTDFTLTISSLQAEDVAVYYCQQSNEGPPTFGQGTKLEIK
notes: IgG
Kd [1]: 0.364 nM

B2: 5878 (antibody, V domains shown)
VH: EVQLLESGGGLVQPGGSLRLSCAASGFTFSSYAMSWVRQAPGKGLEWVSAISGSGISTPYADSVKGRFTISRDNSKNTLYLQMNSLRAEDTAVYYCAKGAGHGSYVKGWFDPWGQGTLVTVSS
VL: EIVLTQSPATLSLSPGERATLSCRASQSVSSYLAWYQQKPGQAPRLLIYDASNRATGIPARFSGSGSGTDFTLTISSLEPEDFAVYYCQQSVNFPFTFGGGTKVEIK
notes: anti-BACE1 IgG
Kd [2]: 14 nM | Kd [3]: 11 nM | EC50, FRET short substrate [4]: 24.3 nM | EC50, HTRF long substrate [4]: 164 nM | Kd [5]: 2.7 nM | Kd [6]: 2.5 nM | % inhibition of BACE1 activity, short FRET substrate [7]: 98% | % inhibition of BACE1 activity, short FRET substrate [8]: 99% | Kd [9]: 36 nM

B3: 5881 (antibody, V domains shown)
VH: EVQLLESGGGLVQPGGSLRLSCAASGFTFSKYAMSWVRQAPGKGLEWVSAISGSGISTPYADSVKGRFTISRDNSKNTLYLQMNSLRAEDTAVYYCAKGAGHGSYVKGWFDPWGQGTLVTVSS
VL: EIVLTQSPATLSLSPGERATLSCRASQSVSSYLAWYQQKPGQAPRLLIYDASNRATGIPARFSGSGSGTDFTLTISSLEPEDFAVYYCQQSVNFPFTFGGGTKVEIK
notes: anti-BACE1 IgG
Kd [2]: 15 nM | Kd [3]: 11 nM | EC50, FRET short substrate [4]: 5.93 nM | EC50, HTRF long substrate [4]: 33.7 nM | Kd [5]: 2.4 nM | Kd [6]: 2.6 nM | % inhibition of BACE1 activity, short FRET substrate [7]: 98% | % inhibition of BACE1 activity, short FRET substrate [8]: 97% | Kd [9]: 7.92 nM

B4: 5875 (antibody, V domains shown)
VH: EVQLLESGGGLVQPGGSLRLSCAASGFTFSTYAMGWVRQAPGKGLEWVSATSGSGGSTYYADSVKGRFTISRDNSKNTLYLQMNSLRAEDTAVYYCAKGGSQWLYAPGSWFDPWGQGTLVTVSS
VL: EIVLTQSPATLSLSPGERATLSCRASQSVSSYLAWYQQKPGQAPRLLIYDASNRATGIPARFSGSGSGTDFTLTISSLEPEDFAVYYCVQRSNFPWTFGGGTKVEIK
notes: anti-BACE1 IgG
Kd [2]: 120 nM | Kd [3]: 50 nM | EC50, FRET short substrate [4]: 1.99 nM | EC50, HTRF long substrate [4]: 4.9 nM | Kd [5]: 22 nM | Kd [6]: 32 nM | % inhibition of BACE1 activity, short FRET substrate [7]: 39% | % inhibition of BACE1 activity, short FRET substrate [8]: 51% | Kd [9]: 1.94 nM

B5: 5876 (antibody, V domains shown)
VH: EVQLLESGGGLVQPGGSLRLSCAASGFTFSSRAMGWVRQAPGKGLEWVSATSGSGGSIYYADSVKGRFTISRDNSKNTLYLQMNSLRAEDTAVYYCAKGGSQWLYAPGSWFDPWGQGTLVTVSS
VL: EIVLTQSPATLSLSPGERATLSCRASQSVSSYLAWYQQKPGQAPRLLIYDASNRATGIPARFSGSGSGTDFTLTISSLEPEDFAVYYCVQRSNFPWTFGGGTKVEIK
notes: anti-BACE1 IgG
Kd [2]: 43 nM | Kd [3]: 31 nM | EC50, FRET short substrate [4]: 0.703 nM | EC50, HTRF long substrate [4]: 1.67 nM | Kd [5]: 9.7 nM | Kd [6]: 9.4 nM | % inhibition of BACE1 activity, short FRET substrate [7]: 46% | % inhibition of BACE1 activity, short FRET substrate [8]: 58% | Kd [9]: 0.72 nM

B6: 5880 (antibody, V domains shown)
VH: EVQLLESGGGLVQPGGSLRLSCAASGFTFGSYAMTWVRQAPGKGLEWVSAISGSGISTPYADSVKGRFTISRDNSKNTLYLQMNSLRAEDTAVYYCAKGAGHGSYVKGWFDPWGQGTLVTVSS
VL: EIVLTQSPATLSLSPGERATLSCRASQSVSSYLAWYQQKPGQAPRLLIYDASNRATGIPARFSGSGSGTDFTLTISSLEPEDFAVYYCQQSVNFPFTFGGGTKVEIK
notes: anti-BACE1 IgG
Kd [2]: 6.1 nM | Kd [3]: 4.5 nM | EC50, FRET short substrate [4]: 7.88 nM | EC50, HTRF long substrate [4]: 171 nM | Kd [5]: 1.2 nM | Kd [6]: 1 nM | % inhibition of BACE1 activity, short FRET substrate [7]: 97% | % inhibition of BACE1 activity, short FRET substrate [8]: 99% | Kd [9]: 65.5 nM

B7: 5874 (antibody, V domains shown)
VH: EVQLLESGGGLVQPGGSLRLSCAASGFTFGSYAMSWVRQAPGKGLEWVSATSGSGGSTYYADSVKGRFTISRDNSKNTLYLQMDSLRAEDTAVYYCAKGGSQWLYAPGSWFDPWGQGTLVTVSS
VL: EIVLTQSPATLSLSPGERATLSCRASQSVSSYLAWYQQKPGQAPRLLIYDASNRATGIPARFSGSGSGTDFTLTISSLEPEDFAVYYCVQRSNFPWTFGGGTKVEIK
notes: anti-BACE1 IgG
Kd [2]: 200 nM | EC50, FRET short substrate [4]: 0.798 nM | EC50, HTRF long substrate [4]: 3.97 nM | Kd [5]: 22 nM | Kd [6]: 33 nM | % inhibition of BACE1 activity, short FRET substrate [7]: 33% | % inhibition of BACE1 activity, short FRET substrate [8]: 37% | Kd [9]: 1.3 nM

B8: 5536 (antibody, V domains shown)
VH: QVQLVQSGAEVKKPGSSVKVSCKASGGTFSSYAISWVRQAPGQGLEWMGSIIPIFGTANYAQKFQGRVTITADESTSTAYMELSSLRSEDTAVYYCARSGGTKYGMLDVWGQGTMVTVSS
VL: EIVMTQSPATLSVSPGERATLSCRASQSVGSNLAWYQQKPGQAPRLLIYGASTRATGIPARFSGSGSGTEFTLTISSLQSEDFAVYYCQQSYLWPPRTFGGGTKVEIK
notes: anti-BACE1 IgG
Kd [2]: 6.8 nM | Kd [3]: 17 nM | EC50, HTRF long substrate [4]: 0.578 nM | Kd [5]: 22 nM | Kd [6]: 15 nM | % inhibition of BACE1 activity, short FRET substrate [7]: 30% | % inhibition of BACE1 activity, short FRET substrate [8]: 32% | IC50, Abeta x-40 in mouse cortical neurons [10]: 42.4 nM | maximal % inhibition of Abeta x-40 [10]: 84%

B9: 5747 (antibody, V domains shown)
VH: QLQLQESGPGLVKPSETLSLTCTVSGGSISSSSYYWGWIRQPPGKGLEWIGNIYYSGSTYYNPSLKSRVTISVDTSKNQFSLKLSSVTAADTAVYYCARLGHGYSYFDLWGRGTLVTVSS
VL: EIVLTQSPATLSLSPGERATLSCRASQSVSSYLAWYQQKPGQAPRLLIYDASNRATGIPARFSGSGSGTDFTLTISSLEPEDFAVYYCQQVYLWPPRTFGGGTKVEIK
notes: anti-BACE1 IgG
Kd [2]: 3.1 nM | Kd [3]: 3 nM | Kd [5]: 2.2 nM | Kd [6]: 3.3 nM | IC50, Abeta x-40 in mouse cortical neurons [10]: 25.6 nM | maximal % inhibition of Abeta x-40 [10]: 74%

B10: 5984 (antibody, V domains shown)
VH: QLQLQESGPGLVKPSETLSLTCTVSGGSISSSSYYWGWIRQPPGKGLEWIGNIYYSGSTYYNPSLKGRVTISVDTSKNQFSLKLSSVTAADTAVYYCARLGHGYNYFDLWGRGTLVTVSS
VL: EIVLTQSPATLSLSPGERATLSCRASQSVSSYLAWFQQKPGQAPRLLIYDASNRATGIPARFSGSGSGTDFTLTISSLEPEDFAVYYCQQVYVWPPRTFGGGTKVEIK
notes: anti-BACE1 IgG
Kd [11]: 0.36 nM | Kd [12]: 0.43 nM | IC50, Abeta x-40 in mouse cortical neurons [13]: 22.6 nM | maximal % inhibition of Abeta x-40 [13]: 70% | Kd [14]: 0.37 nM | Kd [15]: 0.34 nM

B11: 5985 (antibody, V domains shown)
VH: QLQLQESGPGLVKPSETLSLTCTVSGGSISSSSYYWGWIRQPPGKGLEWIGNIYYSGSTYYNPSLKSRVTISVDTSKNQFSLKLSSVTAADTAVYYCARLGHGYNYFDLWGRGTLVTVSS
VL: EIVLTQSPATLSLSPGERATLSCRASQSVSSYLAWFQQKPGQAPRLLIYDASNRATGIPARFSGSGSGTDFTLTISSLEPEDFAVYYCQQVYVWPPRTFGGGTKVEIK
notes: anti-BACE1 IgG
Kd [11]: 0.65 nM | Kd [12]: 0.87 nM | maximal % inhibition of Abeta x-40 [13]: 73% | Kd [14]: 0.81 nM | Kd [15]: 0.68 nM

B12: 5982 (antibody, V domains shown)
VH: QLQLQESGPGLVKPSETLSLTCTVSGGSISSSSYYWGWIRQPPGKGLEWIGNIYYSGSTYYNPSLKSRVTISVDTSKNQFSLKLSSVTAADTAVYYCARLGHGYSYFDLWGRGTLVTVSS
VL: EIVLTQSPATLSLSPGERATLSCRASQSVSSYLAWFQQKPGQAPRLLIYDASNRATGIPARFSGSGSGTDFTLTISSLEPEDFAVYYCQQVYVWPPRTFGGGTKVEIK
notes: anti-BACE1 IgG
Kd [11]: 2 nM | Kd [12]: 2.9 nM | IC50, Abeta x-40 in mouse cortical neurons [13]: 27.3 nM | maximal % inhibition of Abeta x-40 [13]: 71% | Kd [14]: 2.3 nM | Kd [15]: 2.3 nM

B13: 5986 (antibody, V domains shown)
VH: QLQLQESGPGLVKPSETLSLTCTVSGGSISSSSYYWGWIRQPPGKGLEWIGQIYYSGSTFYNPSLKSRVTISVDTSKNQFSLKLSSVTAADTAVYYCARLGHGYSYFDLWGRGTLVTVSS
VL: EIVLTQSPATLSLSPGERATLSCRASQSVSSYLAWFQQKPGQAPRLLIYDASNRATGIPARFSGSGSGTDFTLTISSLEPEDFAVYYCQQVYVWPPRTFGGGTKVEIK
notes: anti-BACE1 IgG
Kd [11]: 0.54 nM | Kd [12]: 0.78 nM | IC50, Abeta x-40 in mouse cortical neurons [13]: 5.42 nM | maximal % inhibition of Abeta x-40 [13]: 67% | Kd [14]: < 0.27 nM | Kd [15]: < 0.24 nM
